Measured values as given in PMC5992102.

What was measured:
[1] = biological target: Dnmt3b-C (C-terminal catalytic domain of mouse Dnmt3b) (mouse)
Dnmt3b-C = Dnmt3b-C (mouse, UniProt O88509 558-859); experiment: nitrocellulose filter binding

Dnmt3L, sequence (Q9CWR8 whole entry): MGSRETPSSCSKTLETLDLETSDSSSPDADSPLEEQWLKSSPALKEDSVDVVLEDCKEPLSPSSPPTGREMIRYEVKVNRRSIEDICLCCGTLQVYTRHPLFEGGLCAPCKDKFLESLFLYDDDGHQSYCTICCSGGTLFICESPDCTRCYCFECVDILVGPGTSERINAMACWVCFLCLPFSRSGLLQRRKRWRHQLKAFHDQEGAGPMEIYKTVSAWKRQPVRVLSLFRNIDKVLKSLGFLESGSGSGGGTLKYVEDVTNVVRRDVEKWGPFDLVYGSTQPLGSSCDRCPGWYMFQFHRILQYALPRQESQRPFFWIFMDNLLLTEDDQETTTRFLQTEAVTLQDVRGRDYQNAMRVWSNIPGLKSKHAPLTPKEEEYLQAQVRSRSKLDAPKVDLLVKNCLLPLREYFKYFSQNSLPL

DNA methylation activity of Dnmt3b-C in the presence of Dnmt3L (fold activation) [1] | Molecule | binding result (Dnmt3b-C)
6 fold | Dnmt3L (from UniProt Q9CWR8 1-421) (natural protein) | –
– | Cy5-labeled 30-mer, one CpG site (dsDNA) DNA 1: GAAGCTGGGACTTCCGGGAGGAGAGTGCAA DNA 2: TTGCACTCTCCTCCCGGAAGTCCCAGCTTC | binds
